Experiments:
Assay in all cases: fluorescence anisotropy
Sgd1 Nterm-MIF4G = biological target: T1, Sgd1 Nterm-MIF4G (Saccharomyces cerevisiae, UniProt Q06132 1-541)
T1 sequence: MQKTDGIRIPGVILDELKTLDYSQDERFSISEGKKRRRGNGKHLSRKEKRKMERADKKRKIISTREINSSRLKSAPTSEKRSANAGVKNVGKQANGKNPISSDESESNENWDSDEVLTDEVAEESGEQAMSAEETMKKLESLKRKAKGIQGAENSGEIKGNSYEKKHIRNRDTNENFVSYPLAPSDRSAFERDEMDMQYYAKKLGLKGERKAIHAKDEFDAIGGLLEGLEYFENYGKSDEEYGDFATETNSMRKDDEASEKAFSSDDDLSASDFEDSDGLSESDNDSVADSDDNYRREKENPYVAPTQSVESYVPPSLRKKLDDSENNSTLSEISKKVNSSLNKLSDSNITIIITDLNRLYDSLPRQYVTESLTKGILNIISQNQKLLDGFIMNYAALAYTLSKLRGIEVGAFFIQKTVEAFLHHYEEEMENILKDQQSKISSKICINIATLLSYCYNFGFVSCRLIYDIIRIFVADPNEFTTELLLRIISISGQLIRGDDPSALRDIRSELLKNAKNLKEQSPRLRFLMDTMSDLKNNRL

[1] = biological target: T2, Sgd1 MIF4G-Cterm (MIF4G, MA3 and C-terminal region) (Saccharomyces cerevisiae, UniProt Q06132 330-899)
T2 sequence: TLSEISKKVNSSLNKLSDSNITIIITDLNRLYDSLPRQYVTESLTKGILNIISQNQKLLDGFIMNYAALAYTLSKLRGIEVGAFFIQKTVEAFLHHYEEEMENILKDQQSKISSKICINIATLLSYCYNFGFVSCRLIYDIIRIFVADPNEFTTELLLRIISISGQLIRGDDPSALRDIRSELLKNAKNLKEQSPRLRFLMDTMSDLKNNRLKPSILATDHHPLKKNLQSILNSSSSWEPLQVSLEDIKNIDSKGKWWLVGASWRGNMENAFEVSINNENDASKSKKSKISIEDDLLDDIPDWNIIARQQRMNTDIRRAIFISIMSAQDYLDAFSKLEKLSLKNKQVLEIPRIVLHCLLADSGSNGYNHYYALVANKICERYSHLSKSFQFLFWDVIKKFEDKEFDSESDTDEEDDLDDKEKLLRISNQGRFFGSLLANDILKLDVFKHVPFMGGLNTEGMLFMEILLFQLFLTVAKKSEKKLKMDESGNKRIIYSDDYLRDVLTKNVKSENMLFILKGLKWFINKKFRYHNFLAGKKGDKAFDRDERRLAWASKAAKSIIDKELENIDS

Sgd1 MA3-Cterm = biological target: T3, Sgd1 MA3-Cterm (Saccharomyces cerevisiae, UniProt Q06132 645-899)
T3 sequence: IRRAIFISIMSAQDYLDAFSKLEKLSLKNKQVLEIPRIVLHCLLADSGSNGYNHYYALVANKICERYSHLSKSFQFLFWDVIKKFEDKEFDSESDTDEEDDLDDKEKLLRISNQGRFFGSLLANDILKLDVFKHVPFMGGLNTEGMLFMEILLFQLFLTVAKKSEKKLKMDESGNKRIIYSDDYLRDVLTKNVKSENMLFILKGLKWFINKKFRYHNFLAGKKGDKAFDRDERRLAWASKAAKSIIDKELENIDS

Which results are given for GUAAUGAAAGU (ssRNA) [11 nt Atto647-labelled RNA]?
binding result (Sgd1 Nterm-MIF4G): no binding; binding result [1]: binds; binding result (Sgd1 MA3-Cterm): binds

Reference: article PMC7237134
